This data set deals with the molecule itself. In words: SEC; size-exclusion chromatography of recombinant YwlG. (Size exclusion chromatography separates by hydrodynamic size, large species first.)

One protein from PMC9522360, “Bidirectional sequestration between a bacterial hibernation factor and a glutamate metabolizing protein” (Proceedings of the National Academy of Sciences of the …, 2022) can be followed below.

B1: recombinant YwlG (natural protein, S. aureus)
chain: KDLTMLLDELKDMSFFNKGDICLIGCSTSEVIGEKIGTVGSMEVAETIFNALDVVSKETGVTFAFQGCEHINRAITIEKSQYNPLTMEEVSVVPDVHAGGSLATYAFQHMKDPIVVEHITVPCGIDIGQTLIGMHIKHVCVPVRTSVKQVGQAIVTIATSRPKKIGGERAKYQ
modifications: C69 was oxidized in the crystals
notes: YwlG of Staphylococcus aureus, 174 a.a., locus tag SAUSA300_2068; also called S. aureus YwlG; source: E. coli, purified (described in SI Appendix)
By stoichiometry N is commonly meant the number of molecules, sites or subunits per partner or assembly. B1: the “stoichiometry N” value came out at 6.
